Experimental data published in US20130028895A1, “EXOSOME INHIBITING AGENTS AND USES THEREOF” (priority 2011, published 2013).

How the values were obtained:
exosomal CD20 = target: T1, exosomal CD20 (Homo sapiens, UniProt P11836); test: Binding of therapeutic anti-CD20 antibodies to lymphoma exosomes (immunogold, Western blot, FACS of exosome-labelled beads); details: purified exosome-labelled beads, Su-DHL-4
T1 construct: endogenous in cells; host or cells: exosomes purified from culture supernatants of Balm-3 and Su-DHL-4 lymphoma cells
T1 sequence (P11836 1-297): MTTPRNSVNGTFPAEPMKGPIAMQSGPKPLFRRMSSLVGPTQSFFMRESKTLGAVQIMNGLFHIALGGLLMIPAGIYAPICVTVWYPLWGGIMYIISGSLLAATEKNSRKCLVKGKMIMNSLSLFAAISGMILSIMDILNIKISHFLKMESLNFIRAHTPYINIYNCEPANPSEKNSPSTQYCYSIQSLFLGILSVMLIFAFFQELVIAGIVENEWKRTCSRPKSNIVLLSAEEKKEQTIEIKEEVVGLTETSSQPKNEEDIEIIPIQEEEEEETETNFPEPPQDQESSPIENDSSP
Procedure: Cells or exosomes coupled to beads were stained with fluorescence-labelled monoclonal antibodies, and analyzed by flow cytometry.
FACS analysis of exosomal surface proteins was carried out after exosomes were coupled to latex beads as previously described (Thery, C., Zitvogel, L., & Amigorena, S, Nat. Rev. Immunol. 2, 569-579 (2002)). Exosomes (40 μg protein) were incubated in 30 μl PBS with 4 μm aldehyde/sulfate latex beads (3 μl of a 4% w/v suspension, Invitrogen) for 15 min., and again for 2 h after addition of 500 μl PBS at room temperature (RT) under constant agitation. The reaction was stopped by addition of 100 μl 1M glycine for 30 min. at RT with gentle agitation, followed by three washes in PBS/0.5% w/v bovine serum albumin (BSA). Antibody staining followed the protocols for antibody staining of cells in suspension.
Detection of membrane-bound fluorescence were performed using standard protocols for flow cytometry. 1×10^5 cells per condition were washed once with PBS and thereafter incubated for 30 min at room temperature and protected from light with either primary antibody or isotype control (both 1:50).

OCI-Ly1 lymphoma cells = test: Inhibition of exosome shedding by inhibitors (AChE activity, flotillin-2 Western blot); assay type: cell-based, human; details: non-toxic dose ranges, 24 h
Procedure: (§1) […] lymphoma cells were exposed to inhibitors of exosome synthesis or release at non-toxic dose ranges. Exosomes were harvested after a 24 h incubation period, and yields were measured by AChE activity (a) and detection of flotillin-2 by Western Blot (b). […] Significant differences to controls without inhibitors (one-way ANOVA with Dunn's post test) are marked with asterices, equivalent results were obtained for the cell lines Balm-3 and Su-DHL-4 (FIG. 10).
5×10^7 lymphoma cells were exposed to inhibitors of exosome synthesis or release at non-toxic dose ranges. Exosomes were harvested after a 24 h incubation period, and yields were measured by AChE activity. Significant differences to controls without inhibitors (one-way ANOVA) are marked with asterices.
(§2) Exosomes were prepared by differential centrifugation according to standard protocols (modified according to Valadi, H. et al. Nat. Cell Biol. 9, 654-659 (2007)). […] Exosomes were quantified by measuring whole protein according to standard protocols (BioRad-DC-Protein-Assay), Western blot detecting flotillin-2 in comparison with whole cells or control exosome preparations, and acetyl-cholin-esterase (AChE) activity as previously described (Savina, A., Fader, C. M., Damiani, M. T., & Colombo, M. I. Traffic. 6, 131-143 (2005)).

lymphoma cells = test: CDC susceptibility: inhibitors plus rituximab with 10% active human complement; assay type: cell-based; details: concomitant incubation with rituximab
Procedure: as §1
(§3) After 24 hours at 37° C., cell viability was determined in triplicates by […] staining as described before. The effect on viability was expressed as the ratio of values from treated versus untreated samples, i.e. specific viability=100× absorbance with antibody treatment/absorbance of untreated control. To detect complement decomposition of C3 in supernatant of exosome coupled to beads, monoclonal antibody 13/15 was coated onto 96-well Medisorp plates (NUNC, Medisorp, Thermo Fisher Scientific) blocked, and washed. Subsequently, appropriately diluted supernatant of exosome:bead complex samples were added to the plate for 60 minutes, washed, and incubated with rabbit anti-C3d for 60 min. After washing, finally anti-rabbit Fc conjugated to horseradish peroxidase (anti-rFc-HRP) was added for 60 minutes, before a further washing and addition of TMB substrate solution. […]

lymphoma cell lines = test: CDC susceptibility after RNAi silencing of ABCA3; assay type: cell-based, human; details: rituximab in the presence of complement, vs lv GFP control
Procedure: (§4) The effects were measured after incubation for 48 h by AChE activity (b, cell line Balm-3, significance tested by one-way ANOVA), whole exosomal protein (c, significance tested by Student's two-sample t-test), as well as flotillin-2 detection from exosome preparations in the cell culture supernatant (d). Addressing ABCA3 overexpression, 4×10^7 cells of HEK293A, the stable ABCA3 overexpressing cell line HEK293A-ABCA3, as well as K562 cells were incubated for 17 h in 36 ml of exosome-free cell culture medium, and exosome yields measured as total exosomal protein.
as §3, with “min.” for “min. After washing, finally anti-rabbit Fc conjugated to horseradish peroxidase (anti-rFc-HRP) was added for 60 minutes, before a further washing and addition of TMB substrate solution.”

ABCA3 = test: Exosome release after silencing of ABCA3 by lentiviral shRNA; assay type: cell-based, human
Procedure: as §4
As small molecules were used at the concentrations indicated: mTOR inhibitor rapamycin, COX-2 inhibitor indometacin, cholesterol synthesis inhibitor U18666A (all from Sigma). As fluorescent dyes CalceinAM and PKH26 were applied (both from Molecular Probes). […]
as §2

GA101: therapeutic anti-CD20 monoclonal antibody (type II, Roche)
exosomal binding by FACS (exosomal CD20): Exosomal binding

CCN(CC)CCO[C@H]1CC[C@@]2(C)C(=CC[C@@H]3[C@@H]2CC[C@]2(C)C(=O)CC[C@@H]32)C1 [U18666A]
exosome shedding / release (OCI-Ly1 lymphoma cells): Inhibition of Exosome Shedding | CDC susceptibility / cytolytic activity of rituximab (lymphoma cells): Enhanced CDC Susceptibility

B1: anti-ABCA3 shRNA: lentiviral shRNA silencing ABCA3, sequences SEQ ID NO: 1 and SEQ ID NO: 2 cloned into pLKO.1 (nucleic acid)
chain 1: CCGGGCCCAGCTCATTGGGAAATTTCTCGAGAAATTTCCCAATGAGCTGGGCTTTTTG
chain 2: AATTCAAAAAAAATTTCCCAATGAGCTGGGCCTCGAGGCCCAGCTCATTGGGAAATTT
modifications: the letters are possibly those of the target site
susceptibility to CDC (lymphoma cell lines; listed as lentiviral RNAi): significantly increased the susceptibility of the lymphoma cells to CDC-mediated lysis | susceptibility to CDC (lymphoma cell lines; listed as shRNA against ABCA3): increased susceptibility of lymphoma cell lines to CDC | exosome release vs mock transfected controls (ABCA3; 48 h, AChE activity, whole exosomal protein, flotillin-2, Balm-3): decreased exosome release | reduction of exosome release (ABCA3; Balm-3, Su-DHL-4 and OCI-Ly1): approximately 50%
